Values of other authors in patent US11046988B2, “Process for the modification of a glycoprotein using a β-(1,4)-N-acetylgalactosaminyl transferase or a mutant thereof” (Synaffix B.V., priority 2014, dated 2021).

Columns and labels:
β-(1,4)-GalNAcT = β-(1,4)-GalNAcT (Caenorhabditis elegans, UniProt Q9GUM2); settings: sugar nucleotide as donor substrate; cited from earlier work
[1] = cited from earlier work

Chain of β-(1,4)-GalNAcT (Q9GUM2 whole entry): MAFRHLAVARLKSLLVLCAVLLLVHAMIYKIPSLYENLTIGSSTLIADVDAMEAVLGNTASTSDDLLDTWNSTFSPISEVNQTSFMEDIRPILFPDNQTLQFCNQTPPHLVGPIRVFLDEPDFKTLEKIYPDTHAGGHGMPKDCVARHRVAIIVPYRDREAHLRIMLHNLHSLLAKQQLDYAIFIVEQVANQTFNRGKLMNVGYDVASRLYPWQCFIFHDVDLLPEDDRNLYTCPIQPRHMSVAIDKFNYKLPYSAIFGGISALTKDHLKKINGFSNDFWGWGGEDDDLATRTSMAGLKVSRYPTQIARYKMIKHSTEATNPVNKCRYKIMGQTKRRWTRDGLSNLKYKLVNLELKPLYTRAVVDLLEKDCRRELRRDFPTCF

| Molecule | transferase activity remaining (compared with UDP-GalNAc) (β-(1,4)-GalNAcT) [%] | activity in the presence of Mg2+ ([1]; Mg2+) | loss of Mn2+-dependent activity ([1]; Mn2+) [%] |
| --- | --- | --- | --- |
| CC(=O)N[C@H]1[C@@H](OP(=O)(O)OP(=O)(O)OC[C@H]2O[C@@H](n3ccc(=O)[nH]c3=O)[C@H](O)[C@@H]2O)O[C@H](CO)[C@@H](O)[C@@H]1O [UDP-GlcNAc] | 0.7 | – | – |
| β4GalT(Y289L,M344H): double mutant β-1,4-galactosyltransferase 1 described by Ramakrishnan et al. (protein, UniProt P08037 1-402, looked up, variant Y289L M344H) MKFREPLLGGSAAMPGASLQRACRLLVAVCALHLGVTLVYYLAGRDLRRLPQLVGVHPPLQGSSHGAAAIGQPSGELRLRGVAPPPPLQNSSKPRSRAPSNLDAYSHPGPGPGPGSNLTSAPVPSTTTRSLTACPEESPLLVGPMLIEFNIPVDLKLVEQQNPKVKLGGRYTPMDCISPHKVAIIIPFRNRQEHLKYWLYYLHPILQRQQLDYGIYVINQAGESMFNRAKLLNVGFKEALKDYDYNCFVFSDVDLIPMNDHNTYRCFSQPRHISVAMDKFGFSLPYVQLFGGVSALSKQQFLSINGFPNNYWGWGGEDDDIYNRLAFRGMSVSRPNAVIGKCRHIRHSRDKKNEPNPQRFDRIAHTKETMLSDGLNSLTYMVLEVQRYPLYTKITVDIGTPS | – | 25-30% | 98 |
